Target: T1, FcRn of the Lumit FcRn Binding Immunoassay (Promega) (UniProt P55899 24-297; P61769 21-119, limits assumed)
T1 construct: Bought kit reagent ('split FcRn/Tracer'); also called split FcRn
Assay: Lumit FcRn Binding Immunoassay (Promega), serial dilution of EVs competing with the kit's Tracer for FcRn, luminescence as fraction of max signal
Protocol: A Lumit™ FcRn Binding Immunoassay (Promega) assay was performed with purified EVs described in Example 1 and native Hek293 EVs. […] Detection reagent was added and luminescence was detected on a plate reader.

T1 sequence (P55899 24-297 limits assumed, form in doubt, chain 1 of 2): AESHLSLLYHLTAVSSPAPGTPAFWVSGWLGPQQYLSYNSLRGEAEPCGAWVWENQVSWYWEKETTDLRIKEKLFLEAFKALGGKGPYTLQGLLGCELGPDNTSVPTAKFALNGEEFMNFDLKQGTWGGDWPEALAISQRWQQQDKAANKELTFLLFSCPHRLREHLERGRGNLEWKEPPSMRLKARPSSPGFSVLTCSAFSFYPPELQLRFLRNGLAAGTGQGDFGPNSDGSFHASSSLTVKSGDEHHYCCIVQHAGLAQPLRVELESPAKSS
T1 sequence (P61769 21-119 limits assumed, form in doubt, chain 2 of 2): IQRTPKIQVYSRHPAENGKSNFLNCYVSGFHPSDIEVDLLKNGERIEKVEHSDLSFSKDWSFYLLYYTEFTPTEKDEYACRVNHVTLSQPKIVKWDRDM

B1: targeting monobody-linker1-modified monomeric Fc-linker2-EphB2 scaffold-linker3-turboluc fusion protein, displayed on purified EVs (Fc fusion)
chain: VSDVPRDLEVVAATPTSLLISWYYPFCAFYYRITYGETGGNSPVQEFTVPRSPDTATISGLKPGVDYTITVYAVTCLGSYSRPISINYRTGGGGSGGGGSGGAPEAAGGPSVFLFPPKPKDTLMISRTPEVTCVVVDVSHEDPEVKFNWYVDGVEVHNAKTKPREEQYNSTYRVVSVLTVLHQDWLNGKEYKCKVSNKALGAPIEKTISKAKGQPREPQVYTKPPSRDELTKNQVSLSCLVKGFYPSDIAVEWESNGQPENNYKTTVPVLDSDGSFRLASYLTVDKSRWQQGNVFSCSVMHEALHNHYTQKSLSLSPGGGSGGGSGGGSGGGSRKCPRIIQNGAIFQETLSGAESTSLVAARGSCIANAEEVDVPIKLYCNGDGEWLVPIGRCMCKAGFEAVENGTVCRGCPSGTFKANQGDEACTHCPINSRTTSEGATNCVCRNGYYRADLDPLDMPCTTIPSAPQAVISSVNETSLMLEWTPPRDSGGREDAVYNIICKSCGSGRGACTRCGDNVQYAPRQLGLTEPRIYASDLLAHTQYTFEIQAVNGVTDQSPFSPQFASVNITTNQAAPSAVSIMHQVSRTVDSITLSWSQPDQPNGVILDYELQYYEKELSEYNATAIKSPTNTVTVQGLKAGAIYVFQVRARTVAGYGRYSGKMYFQTMTEAEYQTEIQEKLPLIIGSSAAGLVFLIAVVVISIVCNRRGFERADSEYTDKLQHYTSGHMTPGMKIYIDPFTYEDPNEAVREFAKEIDISCVKIEQVIGAGEFGEVCSGHLKLPGKREIFVAIKTLKSGYTEKQRRDFLSEASIMGQFDHPNVIHLEGVVTKSTPVMIITEFMENGSLDSFLRQNDGQFTVIQLVGMLRGIAAGMKYLADMNYVHRDLAARNILVNSNLVCKVSDFGLSRFLEDDTSDPTYTSALGGKIPIRWTAPEAIQYRKFTSASDVWSYGIVMWEVMSFGERPYWDMTNQDVINAIEQDYRLPPPMDCPSALHQLMLDCWQKDRNHRPKFGQIVNTLDKMIRNPNSLKAMAPLSSGINLPLGGGEAEAERGKLPGKKLPLEVLIELEANARKAGCTRGCLICLSKIKCTAKMKKYIPGRCADYGGDKKTGQAGIVGAIVDIPEISGFKEMEPMEQFIAQVDRCADCTTGCLKGLANVKCSDLLKKWLPGRCATFADKIQSEVDNIKGLAGD
notes: also called EVs expressing the modified Fc domain
  IC50 (read off the curve): ~200 pM
